This data set in a line: label from the status in PepcDB records.

For the sequence “MALLMSVKRQLYLWHRWLGIVACLFMALWFVSGVVMLYVGYPKLTPAERLAHLPALPAGCCAELPEHWAQQPLKALRLTSLGGRAHHLLELADGRRVILDAASGEPLARADAAWALANARQYAGEAGLAYLGTVDEDMWTHSRALDGDRPLHHVQVDDTAGTWLYLSSRTGEVVRDATAQERAWNWVGAWLHWLYPLRGGFGFDNGWRTLVIGLSLGATVMALLGMTVGILRLRLRKRYRSGSCSPYPGGWLRWHHIGGLLFGTVLVLWVFSGLMSMRPWGVTDSRSQLAPQALRQGPLRAMDIGQTVAQAMASLGREPGFNPVEIQWQRLGGDTFLVARNAAGDSRILEAGAPPARALSEQRLLTAARAMAAGVVVQANWQGHYDAYYFTRDAQSMYGFQSRPLPVLRLRFDDPASTWVYLDPASAEVVASHDARQRAGRWLFNLLHSWDLQPLLQRPVLREGLIIALSIGGLVVSLSGVVLGWRRLRRMTARVRG”, the protein production result is “failed”.

“MALMTMVQALNRALDEEMAKDPRVVVLGEDVGKRGGVFLVTEGLLQKYGPDRVMDTPLSEAAIVGAALGMAAHGLRPVAEIQFADYIFPGFDQLVSQVAKLRYRSGGQFTAPLVVRMPSGGGVRGGHHHSQSPEAHFVHTAGLKVVAVSTPYDAKGLLKAAIRDEDPVVFLEPKRLYRSVKEEVPEEDYTLPIGKAALRREGKDLTLIGYGTVMPEVLQAAAELAKAGVSAEVLDLRTLMPWDYEAVMNSVAKTGRVVLVSDAPRHASFVSEVAATIAEDLLDMLLAPPIRVTGFDTPYPYAQDKLYLPTVTRILNAAKRALDY”: the protein production result was “not failed”.

As to “MALPRSEDGLVLMWSGGKDAMLALDVLHSQSPRRVGALLTTVTADEERVTMHGTPLSLVERQADALNVPLHVMRVPPQPPNEVYEARLEAALTPLLENGFSTVVAGDLFLDDVRAYREALIESVGATALFPLWGRDTTWLAQRFSTRGYRAVVTAVDTTQLDSSFVGRTYDDSFLEDLPDAVDPCGEKGAFHTFVSDGPPFAASVPVAETGRDTTGRIHTVRLRATGEEA”, the protein production entry was “failed”.

As for “MALRLAVPAMTAQLPPGVTHVDCSTLDMPNAYVVVDDNETTLVDAGWPGDEQTVRDGLHTAGVEPGDIDRVLVTHYDADHVGTLARLTPALDAPVYVHERDAPYVAGDRLPPWTARNGIGALHRLYYRRLDLPDLPIRAVVDGDDIGGFHAYHTPGHTPGHVAYVHEDLSVAFLGDLAYGLGDRLKPTGWLTSSDAAAVESSVRSLCRRAPAFEYACPGHGPPLPDGDDRLAEALP”, the protein production entry was “failed”.

For “MALSSAPILITGASQRVGLHCALRLLEHGHQVIISYRTEHASVAQLRQAGAHTLHGDFSSEASIMAFIEQLKSHTSSLRAIVHNASEWLAETPGDEAENFTRMFSVHMLAPYLINLHCEALLHASDVADIVHISDDVTRKGSSKHIAYCATKAGLESLTLSFAARFAPLVKVNGIAPALLMFQPKDDAAYRANALAKSAMGIEPGAEVIYQSLRYLLDSTYVTGTTLTVNGGRHVK”, the protein production entry is “failed”.

As to “MALSTEKKVGFFFMAGLVVLGVMLELGERWNPFEKNLPYVTYLSSTTGLKVGDPVRLAGVEVGKITRIDIEDGRVKVGFEVKPGTRIKTDSVATIRLTNLLGGQFLGISFGTQTADILAPGSEVKSREIANIDIIVDNVSDLTKDARTFLNDLNTNQNEVLGKISTMLDENRGNLKGAVQNLNSITAKMDRGEGSLAMLLNDKALYQNTNELATSLKTVTGKIERGEGSLGKLVNEDALYVEAKGALAELNAGAKDIKEIAAKINKGEGSVGKLVHDEALYNELRDASKNISDVARKINEGQGTLGKLVNDDKLYRDTAAAMKKLDKAADGLSDSGPISVLGSVVGTLF”, the protein production result was “failed”.

Take “MALTFYQYPKCGTCQKAKKWLDQHGIEVNSVHIVEQPPSKEELKQLYEQSGLELKKFFNTSGKKYRELGLKDKVKEASEDELLETLASDGMLIKRPILTDGDKVTVGFKEAEYEETWKK”: the protein production entry is on record as “failed”.

In the case of “MALVLVKYGTDHPVEKLKIRSAKAEDKIVLIQNGVFWALEELETPAKVYAIKDDFLARGYSEEDSKVPLITYSEFIDLLEGEEKFIG”, the protein production result was “not failed”.

On to “MALYWNLRLSVKNWRSIQNNEKLIFQVLWPLKLLVALKFISTLEERLIIPESDKPHTPPEGRLPDATKGFDLLRDVFAKRMGLSDKDIVALSGSHTPISPSQS”, for which the protein production entry is “failed”.

Regarding “MAMADVTIRGAGIFGLSIAWACVLRGARVQVVDPFGPGAGSSGGLVGALAPHVPENWNAKKAFQFDSLIMAEGFWAGVEAAGGVSPGYGRTGRIQPLADERAVDLADERAENARTLWQGQAEWRVCPVDEMGSWCPPSPTGLVVHDTLSARMHPRRACAALVGALAVRGVEVLAEAPDRGQVIHATGIAGLEELNRARGRLVGTGVKGQAALLRFDAGRQAPQLFADTVHIVPHADGTLAIGSTSERDYDDPTSTDAALDTVLDRAMQAVPLLHGAEVIERWAGVRPRSRSRAPMLGAHPLYPDQFIANGGFKIGFGMAPKVAHVMAELVLEGQDNIPQDFRPEASL”, the protein production entry is given as “failed”.

With “MAMGRTTQFTLDEVAKHADKDSCWLVIDGKVYAVEKFLNEHPGGEDVLLETAGRDATREFEDVGHSKSAREQLKEFYIGDVREPTAEELAAKRAVQASAAAERRDGDGVRANGLGKERLFAGGAFGAEPLSGGSSTWTLLKRLFVPVCIAVLVYLVREYSKQVQTGG”, the protein production result is given as “not failed”.

Turning to “MAMLQTNLGFITSPTFLCPKLKVKLNSYLWFSYRSQGNFSYSLYTFKPMNLWFVQKLDFSKRVNRSYKRDALLLSIKCSSSTGFDNSNAVNSNVVVKEKSVSVILLAGGQGKRMKLCFWLRDVPKISLSLFLFCGVLEYEESIDVDLRFAIPGKERQDSVYSGLQEIDVNSELVCIHDSARPLVNTEDVEKVLKDGSAVGAAVLGVPAKATIKEVIKPELLKKGFELVKSEGLEVTDDVSIVEYLKHPVYVSQGSYTNIKVTTPDDLLLAERILSEDS”, the protein production entry is listed as “failed”.

Take “MANAKPVCSLFHSTFHDGIASVFHRSFSFPLLLILLIAFSGSGYANSSKETRAAARSESAGKTVSSRWAKGRLLVIPRAGLTAMEFDKATKPYGVKSRRRLNGLNAHVYELPDGVDEVKVLDKLKKDRRFKAVELDRLVEPAQVVTDPAFGNSWALPKIQAPAAWDIATGDGITIAILDTGVDGTHPDLAANMLPGWNAYDNNTDTSDIYGHGTKVAGTAAAVANNGAGSSGLAWNARILPVRISMPDGRAYLSDMAKGIRWAADNGARIANISYGGAESLTVQSAANYMRSKGGVVVMSAGNSGGLNNFPASNAIIVASATDSKDARASWSSYGPYVDVAAPGVSIYTTIRGGGYGYVSGTSFSSPIVAAAAALLFSINPDLAPTDIDQMLTATAQDLGNAGYDQYYGHGRINAASAVNAAHARISVDRTAPLISIASPTGGTVSGSVPVDVNYSDNKGVVRVDLYVNGRKTIEDTQPPFAFAWDTTTLANGSYTLVAYAFDAAGNQGTSSTVNVTVKNTVADTTPPTISITSPAGGAVVLGSVPVNVNSSDNIGVVRTELHVNGKKVMEGTGSSFVWDTKSLADGNYTLVAYAFDAAGNQGASSPVAVSVKNTGTTTNTEPLPQINSFNLRDGQNVSRNQNIRVTADRNTRKINLKINGGIIAAANGNSLSYRWNTSAIPKNSNITVTAEAFNAKGDATSRTVTVRN”: the protein production entry is on record as “failed”.

For the sequence “MANEDCPKAADSPFSSDKHAQLILAQINKMRNGQHFCDVQLQVGQESFKAHRLVLAASSPYFAALFTGGMKESSKDVVPILGIEAGIFQILLDFIYTGIVNIGVNNVQELIIAADMLQLTEVVHLCCEFLKGQIDPLNCIGIFQFSEQIACHDLLEFSENYIHVHFLEVHSGEEFLALTKDQLIKILRSEELSIEDEYQVFLAAMQWILKDLGKRRKHVVEVLDPIRFPLLPPQRLLKYIEGVSDFNLRVALQTLLKEYCEVCKSPKENKFCSFLQTSKVRPRKKARKYLYAVGGYTRLQGGRWSDSRALSCVERFDTFSQYWTTVSSLHQARSGLGVTVLGGMVYAIGGEKDSMIFDCTECYDPVTKQWTTVASMNHPRCGLGVCVCYGAIYALGGWVGAEIGNTIERFDPDENKWEVVGNMAVSRYYFGCCEMQGLIYVIGGISNEGIELRSFEVYDPLSKRWSPLPPMGTRRAYLGVAALNDCIYSVGGWNETQDALHTVEKYSFEEEKWVEVASMKVPRAGMCVVAVNGLLYVSGGRSSSHDFLAPGTLDSVEVYNPHSDTWTEIGNMITSRCEGGVAVL”, the protein production result is “failed”.

With “MANGRIEKIGQQLTTPSGYQVLDATGKHVTAGIVDEHSHIAINGGTNEGTDAVTAEVRIGDVINPEDVSIYRALAGGVTSAQLLHGSANPIGGQSQLIKMKWGESAEQLKFANAPASIKFALGENVKQSNWGEKFVQRFPQTRMGVKALFEETFDAALAYENALKDYDDLRSSEKKKTLAPRPSYRLQAVAEVLKQQRDVHIHSYVQSEILMFLRLAEAYRFKVQTFTHVLEGYKVASELAAHGAGASTFADWWAYKFEVYDAIPQNACLMQKQGVLTSINSDDYEMQRRLNQEAAKSMMYCGMSKEDAWNMVTIYPAKQLRVDEYVGSLTPGKMADIVLWNAEPLSIYAKVTHAWVEGKRYFDREQDQLAQQQVVTERAALIQKILSSDDNAKAGEKVTPLNEPQWHCDTHYQAWGQHHQGAK”, the protein production result is on record as “failed”.

In the case of “MANITFSSPVMAKDVTVYAVAGDRGTILAVAKSHSIPIPFDCQDGECGSCLVQVEHFNPKAKAAVALTEKEKEVLRQLGKITKEEIVDAEVNDIPPRYRLACQCFVRNEDILVKFEGDKTKPQRLAVTPAAAHYKGGMEINTPQEFFSYAAKVEEDAALHYDSLAKAMADAGNAPVAKLFAQLAEFSRLHLAEVKSRAGSIDLSKSVPPDYAWPDHATPERAAVWASDTTLTRLGALKAALQGERRGYEFYRAVEATTKSSEVAAAAKEFVNEEAEHVRILEAWITQEEWSLKHAAKAAENA”, the protein production result is listed as “failed”.

Turning to “MANKKIDHREEAIELLKQDAKRILQLIKVQMDNLTLPQCPAYEEVLDTQMYGLSREINFATRLGLIEPEEGKKLISTLEKELSALHELSMSKK”, the protein production entry is recorded as “not failed”.

Consider “MANKKNKVKFNICNVHYAPITVADEGKVSFGTPVAMPGAVSISMDPTGEPESFYADGIEYYVINNNQGYDGDLELAMIPETFRTDILKEEADSNNVLVENANSETGSFALLFEFDGDIRKIRHVLYNCSASRPTIESKTNEEDKEVQTETLTIKARPMADGYVKAKTGDSTTDTVYNNWYKSVYLPNSLEHHHHHH”, for which the protein production result is on record as “failed”.

“MANLAASTCLYSWLLVLLLSSVSAIIDEDTQVYIVYMGSLSSRADYIPTSDHMSILQQVTGESSIEGRLVRSYKRSFNGFAARLTESERTLIAEIEGVVSVFPNKILQLHTTTSWDFMGVKEGKNTKRNLAIESDTIIGVIDTGIWPESKSFSDKGFGPPPKKWKGVCSGGKNFTCNNKLIGARDYTSEGTRDTSGHGTHTASTAAGNAVKDTSFFGIGNGTVRGGVPASRIAAYKVCTDSGCSSEALLSSFDDAIADGVDLITISIGFQFPSIFEDDPIAIGAFHAMAKGILTVSSAGNSGPKPTTVSHVAPWIFTVAASTTNRGFITKVVLGNGKTLAGRSVNAFDMKGKKYPLVYGKSAASSACDAKTAALCAPACLNKSRVKGKILVCGGPSGYKIAKSVGAIAIIDKSPRPDVAFTHHLPASGLKAKDFKSLVSYIESQDSPQAAVLKTETIFNRTSPVIASFSSRGPNTIAVDILKPDITAPGVEILAAFSPNGEPSEDDTRRVKYSVFSGTSMACPHVAGVAAYVKTFYPRWSPSMIQSAIMTTAWPVKAKGRGIASTEFAYGAGHVDPMAALNPGLVYELDKADHIAFLCGMNYTSKTLKIISGDTVKCSKKNKILPRNLNYPSMSAKLSGTDSTFSVTFNRTLTNVGTPNSTYKSKVVAGHGSKLSIKVTPSVLYFKTVNEKQSFSVTVTGSDVDSEVPSSANLIWSDGTHNVRSPIVVYIMVVDEA”: the protein production result is “failed”.

The record behind these values is a protein production outcome set (Wang et al. 2014).
